Target: the molecule itself
Assay: SEC

B1: human tryptophan 2,3-dioxygenase (40-390), Met108Ile variant (enzyme, UniProt P48775 40-390, looked up)
chain: LIYGNYLHLEKVLNAQELQSETKGNKIHDEHLFIITHQAYELWFKQILWELDSVREIFQNGHVRDERNILKVVSRMHRVSVILKLLVQQFSILETMTALDFNDFREYLSPASGFQSLQFRLLENKIGVLQNMRVPYNRRHYRDNFKGEENELLLKSEQEKTLLELVEAWLERTPGLEPHGFNFWGKLEKNITRGLEEEFIRIQAKEESEEKEEQVAEFQKQKEVLLSLFDEKRHEHLLSKGERRLSYRALQGALMIYFYREEPRFQVPFQLLTSLMDIDSLMTKWRYNHVCMVHRMLGSKAGTGGSSGYHYLRSTVSDRYKVFVDLFNLSTYLIPRHWIPKMNPTIHKFLY
stoichiometry N: 4
